Laboratory results: publication PMC12678314

Molecular target: glutamate-1-semialdehyde aminotransferase (GSAAT), endogenous (Arabidopsis thaliana (endogenous in leaf extracts; the plant of the chloroplast extracts is not named)) (UniProt P42799)
Experiment: non-reducing SDS-PAGE with immunoblot; wild-type Arabidopsis leaf extracts, untreated or pretreated with H2O2, diamide or DTT for 30 min at room temperature; non-reducing 8% SDS-PA gel (the text says non-denaturing PA gel); GSAAT-specific antibody

Sequence of glutamate-1-semialdehyde aminotransferase (GSAAT), endogenous (P42799 39-474): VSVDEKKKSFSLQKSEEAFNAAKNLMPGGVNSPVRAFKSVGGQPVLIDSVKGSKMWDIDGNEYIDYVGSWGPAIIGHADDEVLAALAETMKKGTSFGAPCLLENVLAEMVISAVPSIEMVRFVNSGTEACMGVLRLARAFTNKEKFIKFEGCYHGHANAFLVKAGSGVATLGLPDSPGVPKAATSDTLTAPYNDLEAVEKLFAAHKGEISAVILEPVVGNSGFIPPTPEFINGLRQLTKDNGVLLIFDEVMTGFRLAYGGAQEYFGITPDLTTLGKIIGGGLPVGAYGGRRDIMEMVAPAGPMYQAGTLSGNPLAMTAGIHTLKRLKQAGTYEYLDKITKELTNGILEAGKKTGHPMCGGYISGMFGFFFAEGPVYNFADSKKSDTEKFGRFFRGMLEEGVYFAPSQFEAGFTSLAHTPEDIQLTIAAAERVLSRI

For “glutamate-1-semialdehyde aminotransferase (GSAAT), endogenous (from UniProt P42799 39-474) (enzyme)”, the stoichiometry N was 2.
